Experimental data taken from US20180134786A1 (TOHOKU UNIVERSITY, published 2018).

Columns and labels:
[1] = target: T1, human podocalyxin expressed on cancer cells (human, UniProt O00592 23-558); experiment: immunohistochemistry on breast cancer tissue array, 5 µg/mL
T1 construct: Podocalyxin on cancer cells; also called hPODXL; PODXL
T1 sequence: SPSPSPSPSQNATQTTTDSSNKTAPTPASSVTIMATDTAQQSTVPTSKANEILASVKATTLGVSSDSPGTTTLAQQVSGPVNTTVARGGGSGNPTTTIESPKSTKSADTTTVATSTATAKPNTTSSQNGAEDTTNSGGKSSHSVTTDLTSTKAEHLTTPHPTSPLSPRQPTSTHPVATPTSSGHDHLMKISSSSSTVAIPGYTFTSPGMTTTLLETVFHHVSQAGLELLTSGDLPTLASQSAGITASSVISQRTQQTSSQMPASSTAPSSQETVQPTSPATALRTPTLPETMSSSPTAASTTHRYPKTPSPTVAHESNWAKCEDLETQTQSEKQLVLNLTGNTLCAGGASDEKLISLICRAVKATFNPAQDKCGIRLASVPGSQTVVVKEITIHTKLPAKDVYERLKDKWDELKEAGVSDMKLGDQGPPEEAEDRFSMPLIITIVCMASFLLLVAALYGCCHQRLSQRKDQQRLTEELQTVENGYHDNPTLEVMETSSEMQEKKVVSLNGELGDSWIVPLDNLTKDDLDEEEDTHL
Protocol: Various paraffin sections were deparaffined in xylene and ethanol solutions. The resulting sections were subjected to antigen activation in an autoclave by using a citrate buffer having pH 6.0 (product of Dako). Endogenous peroxidase was inactivated with 3% H₂O₂. After blocking with SuperBlock (product of Thermo Fisher) at room temperature for 10 minutes, the primary antibody was reacted at a concentration of from 5 to 10 μg/mL at room temperature for one hour. After amplification using a LSAB kit (product of Dako), LSAB2 (product of Dako), or Envision+ (product of Dako), color was developed using DAB (product of Dako).
Podocalyxin is known to be expressed highly in breast cancer. PcMab-6 and an anti-podocalyxin antibody (polyclonal antibody: product of R&D) were therefore reacted with a breast cancer tissue array (product of US Biomax) at a concentration of 5 μg/mL. […] Similarly, a difference in reactivity with breast cancer between PcMab-6 and PcMab-47 was investigated. […] It has therefore been confirmed that also in Immunohistochemistry, PcMab-6 is CasMab.

[2] = target: T1, human podocalyxin expressed on cancer …; experiment: flow cytometry on LN229/hPODXL, CHO culture supernatant
Protocol: A CRISPR/Cas plasmid of a glycosyltransferase (FUT-8) that transfers a core fucose was introduced into CHO-s cells (product of Thermo Scientific) and CHO-s-fut8-knock out cells were established. pCAG-hIgG1hG2b/PcMab-6HVH (G418)/pCAG-hIgCK/PcMab-6LVL (zeocin) (each 2.5 μg) or pCAG-hIgG1hG2b/PcMab-47HVH (G418)/pCAG-hIgCK/PcMab-47LVL (zeocin) (each 2.5 μg) were mixed and transfected into 1×10⁵ CHO-s/fut8-knock out cells (corresponding to 1 well of a 6-well plate) by the method of Lipofectamin LTX. After 24 hours, selection of transfected cells was started on a medium containing 500 μg/mL of Zeocin and 1 mg/mL of G418. The reactivity of the culture supernatant of the selected cells with the LN229 cells having therein forcibly expressed podocalyxin (LN229/hPODXL) was confirmed by flow cytometry.

Binder | binding result [1] | binding result [2]
PcMab-47 (antibody, mouse IgG1, kappa, Mouse monoclonal antibody; also called cancer-nonspecific anti-podocalyxin antibody) heavy: QVQLQQSAAELARPGASVKMSCKASGYTFTNYTIHWVKQRPGQGLEWIGFINPTSGYSDFNQKFKAKTTLTADKSSSTAHMQLTSLTSEDSAVYYCARLFAPAYWGQGTLVTVSAAKTTPPSVYPLAPGSAAQTNSMVTLGCLVKGYFPEPVTVTWNSGSLSSGVHTFPAVLQSDLYTLSSSVTVPSSTWPSETVTCNVAHPASSTKVDKKIVPRDCGCKPCICTVPEVSSVFIFPPKPKDVLTITLTPKVTCVVVDISKDDPEVQFSWFVDDVEVHTAQTQPREEQFNSTFRSVSELPIMHQDWLNGKEFKCRVNSAAFPAPIEKTISKTKGRPKAPQVYTIPPPKEQMAKDKVSLTCMITDFFPEDITVEWQWNGQPAENYKNTQPIMDTDGSYFVYSKLNVQKSNWEAGNTFTCSVLHEGLHNHHTEKSLSHSPGK light: QIVLTQSPAIMSASLGERVTMYCTASSSVSSSYLHWYQQKPGSSPKLWIYGTSNLASGVPARFSGSGSGTSYSLTISSMEAEDAATYYCHQYHRPPLTFGAGTKLELKRADAAPTVSIFPPSSEQLTSGGASVVCFLNNFYPKDINVKWKIDGSERQNGVLNSWTDQDSKDSTYSMSSTLTLTKDEYERHNSYTCEATHKTSTSPIVKSFNRNEC | binds | –
mouse-human chimeric PcMab-47 antibody (chPcMab-47) (antibody, VH/VL of PcMab-47 with human IgG1 CH1-hinge-CH2-CH3 and human kappa CL, expressed in CHO cells; The entries may include the signal peptide; also called chPcMa47) heavy: not shown light: QIVLTQSPAIMSASLGERVTMYCTASSSVSSSYLHWYQQKPGSSPKLWIYGTSNLASGVPARFSGSGSGTSYSLTISSMEAEDAATYYCHQYHRPPLTFGAGTKLELKRTSTVAAPSVFIFPPSDEQLKSGTASVVCLLNNFYPREAKVQWKVDNALQSGNSQESVTEQDSKDSTYSLSSTLTLSKADYEKHKVYACEVTHQGLSSPVTKSFNRGEC | – | binds
